From patent US20220025055A1 (Boehringer Ingelheim, published 2022)
Positions count from the first letter of the chain named.

B1: Humanized VH5 x Humanized VL4 (antibody, V domains shown)
VH: EVQLVESGGVVVQPGGSLRLSCAPSGFTFSNYGMAWVRQAPGKGLEWVSSIHSGGGDTYYADSVKGRFTISRDNSKNSLYLQMNSLRTEDTALYYCARGRTPTGYYFDHWGQGTMVTVSS
VL: DIQMTQSPSSLSASVGDRVTITCRASEGIHNGLAWYQQKPGKAPKRLIYNANSLHSRVPSRFSGSGSGTEFTLTISSLQPEDFATYYCQQYYDYPLTFGQGTKLEIK
B2: Humanized VH5 x Humanized VL5 (antibody, V domains shown)
VH: B1 VH
VL: EIVMTQSPATLSVSPGERATLSCRASEGIHNGLAWYQQKPGQAPRLLIYNANSLHSGIPARFSGSGSGTEFTLTISSLQSEDFAVYFCQQYYDYPLTFGQGTKLEIK
B3: Humanized VH1 x Humanized VL2 (antibody, V domains shown)
VH: B1 VH with V5L, V10G, V11L, A61R, S78T, T88A, L93V
VL: B1 VL with D1A, R46L, R57G, E70D
B4: Humanized VH1 x Humanized VL4 (antibody, V domains shown)
VH: B1 VH with V5L, V10G, V11L, A61R, S78T, T88A, L93V
VL: B1 VL
B5: Humanized VH3 x Humanized VL2 (antibody, V domains shown)
VH: B1 VH with V10G, V11L, E46V, A61R, S75A, S78T, T88A, L93V
VL: B1 VL with D1A, R46L, R57G, E70D
B6: Humanized VH4 x Humanized VL2 (antibody, V domains shown)
VH: B1 VH with E1Q, V10G, G16R, P24A, S49A, A61R, S78T, T88A, L93T
VL: B1 VL with D1A, R46L, R57G, E70D
B7: Humanized VH5 x Humanized VL1 (antibody, V domains shown)
VH: B1 VH
VL: B1 VL with A43V, R46L, R57G, E70D, F83V, Y87F
B8: Humanized VH5 x Humanized VL2 (antibody, V domains shown)
VH: B1 VH
VL: B1 VL with D1A, R46L, R57G, E70D
B9: Humanized VH5 x Humanized VL3 (antibody, V domains shown)
VH: B1 VH
VL: B1 VL with D1A, M4L, R46L, E70D, Y87F
B10: Humanized VH1 x Humanized VL3 (antibody, V domains shown)
VH: B1 VH with V5L, V10G, V11L, A61R, S78T, T88A, L93V
VL: B1 VL with D1A, M4L, R46L, E70D, Y87F
B11: Humanized VH1 x Humanized VL5 (antibody, V domains shown)
VH: B1 VH with V5L, V10G, V11L, A61R, S78T, T88A, L93V
VL: B2 VL
B12: Humanized VH2 x Humanized VL1 (antibody, V domains shown)
VH: B1 VH with V10G, V11L, P24A, S49A, A61R, S75A, T88A, L93V
VL: B1 VL with A43V, R46L, R57G, E70D, F83V, Y87F
B13: Humanized VH2 x Humanized VL3 (antibody, V domains shown)
VH: B1 VH with V10G, V11L, P24A, S49A, A61R, S75A, T88A, L93V
VL: B1 VL with D1A, M4L, R46L, E70D, Y87F
B14: Humanized VH3 x Humanized VL1 (antibody, V domains shown)
VH: B1 VH with V10G, V11L, E46V, A61R, S75A, S78T, T88A, L93V
VL: B1 VL with A43V, R46L, R57G, E70D, F83V, Y87F
B15: Humanized VH3 x Humanized VL3 (antibody, V domains shown)
VH: B1 VH with V10G, V11L, E46V, A61R, S75A, S78T, T88A, L93V
VL: B1 VL with D1A, M4L, R46L, E70D, Y87F
B16: Humanized VH3 x Humanized VL5 (antibody, V domains shown)
VH: B1 VH with V10G, V11L, E46V, A61R, S75A, S78T, T88A, L93V
VL: B2 VL
B17: Humanized VH4 x Humanized VL1 (antibody, V domains shown)
VH: B1 VH with E1Q, V10G, G16R, P24A, S49A, A61R, S78T, T88A, L93T
VL: B1 VL with A43V, R46L, R57G, E70D, F83V, Y87F
B18: Humanized VH4 x Humanized VL3 (antibody, V domains shown)
VH: B1 VH with E1Q, V10G, G16R, P24A, S49A, A61R, S78T, T88A, L93T
VL: B1 VL with D1A, M4L, R46L, E70D, Y87F
B19: Humanized VH4 x Humanized VL4 (antibody, V domains shown)
VH: B1 VH with E1Q, V10G, G16R, P24A, S49A, A61R, S78T, T88A, L93T
VL: B1 VL
B20: Humanized VH4 x Humanized VL5 (antibody, V domains shown)
VH: B1 VH with E1Q, V10G, G16R, P24A, S49A, A61R, S78T, T88A, L93T
VL: B2 VL
B21: NB1063 (antibody, V domains shown)
VH: B1 VH with V5L, V10G, V11L, A61R, S78T, T88A, L93V
VL: B1 VL with A43V, R46L, R57G, E70D, F83V, Y87F
B22: NB1112 (antibody, V domains shown)
VH: B1 VH with V5L, V10G, V11L, A61R, S78T, T88A, L93V
VL: B1 VL with N31D, A43V, R46L, R57G, E70D, F83V, Y87F
B23: NB1114 (antibody, V domains shown)
VH: B1 VH with V5L, V10G, V11L, A61R, S78T, T88A, L93V
VL: B1 VL with N31T, A43V, R46L, R57G, E70D, F83V, Y87F
B24: NB1115 (antibody, V domains shown)
VH: B1 VH with V5L, V10G, V11L, A61R, S78T, T88A, L93V
VL: B1 VL with N31L, A43V, R46L, R57G, E70D, F83V, Y87F

What follows are molecules tested against T1, human FLT3 (FMS-like tyrosine kinase 3) (human, UniProt P36888 27-993) (assay: cell-based or functional assay).
T1 sequence (looked up): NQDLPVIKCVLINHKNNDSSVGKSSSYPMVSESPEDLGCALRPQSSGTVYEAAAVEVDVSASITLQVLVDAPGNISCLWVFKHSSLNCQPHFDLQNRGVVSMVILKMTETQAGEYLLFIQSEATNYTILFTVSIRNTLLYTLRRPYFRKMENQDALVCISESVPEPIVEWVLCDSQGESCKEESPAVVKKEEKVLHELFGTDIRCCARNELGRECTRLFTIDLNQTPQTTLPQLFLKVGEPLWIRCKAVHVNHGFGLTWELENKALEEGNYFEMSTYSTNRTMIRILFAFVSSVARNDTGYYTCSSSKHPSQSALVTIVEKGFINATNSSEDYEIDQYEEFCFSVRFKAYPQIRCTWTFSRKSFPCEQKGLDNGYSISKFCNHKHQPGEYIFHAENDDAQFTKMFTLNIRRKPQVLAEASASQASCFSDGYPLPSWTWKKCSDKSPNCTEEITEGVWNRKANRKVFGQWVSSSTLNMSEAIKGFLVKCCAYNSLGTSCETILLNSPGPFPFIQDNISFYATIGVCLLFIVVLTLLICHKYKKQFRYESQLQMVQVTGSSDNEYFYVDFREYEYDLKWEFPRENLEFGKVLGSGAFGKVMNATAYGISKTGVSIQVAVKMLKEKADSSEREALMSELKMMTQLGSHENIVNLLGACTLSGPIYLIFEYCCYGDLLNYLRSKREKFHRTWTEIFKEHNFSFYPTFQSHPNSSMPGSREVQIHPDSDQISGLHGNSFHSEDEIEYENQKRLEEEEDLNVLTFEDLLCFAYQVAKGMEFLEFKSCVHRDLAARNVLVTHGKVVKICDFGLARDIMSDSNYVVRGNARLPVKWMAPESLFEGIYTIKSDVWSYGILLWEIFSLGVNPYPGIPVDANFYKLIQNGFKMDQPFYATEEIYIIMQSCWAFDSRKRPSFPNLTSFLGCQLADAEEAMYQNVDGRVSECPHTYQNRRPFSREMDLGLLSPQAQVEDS
In the case of “FLT3 ligand (FLT3L) (from UniProt P49771 27-181)”, the EC50 of expansion of HLA-DR+CD1c+ cells from primary human bone marrow, 12 days is reported as 0.023 nM.

Target: T1, human FLT3 (FMS-like tyrosine kinase 3)
Test: cell-based or functional assay
Remark: another data set of the same source
For B1, the “Single dose STAT5-Luc assay, activity relative to NB1016 (chimeric), antibody at 1 nM” value was 77%. With B2 the “Single dose STAT5-Luc assay, activity relative to NB1016 (chimeric), antibody at 1 nM” value was 75%. In the case of B3, the “Single dose STAT5-Luc assay, activity relative to NB1016 (chimeric), antibody at 1 nM” value is reported as 72%. With B4 the “Single dose STAT5-Luc assay, activity relative to NB1016 (chimeric), antibody at 1 nM” value was 91%. With B5 the “Single dose STAT5-Luc assay, activity relative to NB1016 (chimeric), antibody at 1 nM” value was 81%. With B6 the “Single dose STAT5-Luc assay, activity relative to NB1016 (chimeric), antibody at 1 nM” value was 90%. With B7 the “Single dose STAT5-Luc assay, activity relative to NB1016 (chimeric), antibody at 1 nM” value was 83%. For B8, the “Single dose STAT5-Luc assay, activity relative to NB1016 (chimeric), antibody at 1 nM” value was 53%. With B9 the “Single dose STAT5-Luc assay, activity relative to NB1016 (chimeric), antibody at 1 nM” value was 31%.

Target: T1, human FLT3 (FMS-like tyrosine kinase 3)
Test: cell-based or functional assay
Remark: another data set of the same source
In the case of B10, the “EC50 in AML5 proliferation assay” value is reported as 0.105 nM. For B11, the “EC50 in AML5 proliferation assay” value was 0.097 nM. For B12, the “EC50 in AML5 proliferation assay” value was 0.08 nM. In the case of B13, the “EC50 in AML5 proliferation assay” value is reported as 0.091 nM. With B14 the “EC50 in AML5 proliferation assay” value was 0.076 nM. In the case of B15, the “EC50 in AML5 proliferation assay” value is reported as 0.051 nM. B16 was tested, and the “EC50 in AML5 proliferation assay” value was 0.07 nM. B17 was tested, and the “EC50 in AML5 proliferation assay” value was 0.082 nM. In the case of B18, the “EC50 in AML5 proliferation assay” value is reported as 0.091 nM. B19 was tested, and the “EC50 in AML5 proliferation assay” value was 0.095 nM. B20 was tested, and the “EC50 in AML5 proliferation assay” value was 0.098 nM.

Target: T1, human FLT3 (FMS-like tyrosine kinase 3)
Test: cell-based or functional assay
Remark: another data set of the same source
For B21, the “EC50 in AML5 proliferation assay” value was 0.118 nM. B22 was tested, and the “EC50 in AML5 proliferation assay” value was 0.27 nM. In the case of B23, the “EC50 in AML5 proliferation assay” value is reported as 0.201 nM. With B24 the “EC50 in AML5 proliferation assay” value was 0.135 nM.
